Molecular target: acetylesterase LgEstI from Lactococcus garvieae (Lactococcus garvieae)
Assay: SEC; Superdex 200 10/300 GL; 20 mM Tris-HCl pH 8.0, 200 mM NaCl, 1 mM TCEP, 5% glycerol; standard curve from a protein standard mix of 15-600 kDa

stoichiometry N: 2
Substance: acetylesterase LgEstI from Lactococcus garvieae (enzyme)
